Data as given in the supplement of paper PMC9170038.

The sequences below were run on K4 kissing-loop RNA reporter (assay: apparent KD of K4 kissing-loop reporter; higher = weaker reporter binding). Conditions: Eterna round: R107; input ligand: FMN 200 uM.
Procedure: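 RNA-MaP round R107: designed RNA switches with theophylline, tryptophan, arginine or FMN aptamers are transcribed on-chip within common flanks. They are titrated with a labelled K4 kissing-loop RNA reporter in RNA-MaP buffer (100 mM Tris pH 7.5, 80 mM KCl, 4 mM MgCl2), without ligand or with the indicated ligand. Median apparent KD per design.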
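Also: bound reporter read as fluorescence of individual clusters on recovered sequencing chips by microscopy, with normalized cluster intensities fitted with a binding model.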

Point of comparison: “AAUUUAUUAACUGAUACCAGACUUUAGCGCGUUUAUAAGUCAAGUGAUGUUUGACUAAUUGUCCCUUGGCAGCAGUAUUUAUUAA [JR_SSTheophyB_Sub021]”, “apparent KD of K4 kissing-loop reporter” value 0.233 µM. Against it:
- CCUAUCUCAUACGAUACCAGUGAUUAACCAGUGAUGUUGGAAUAACCAAGGAAUAUUUAUCACCCUUGGCAGCGUAUGGGAUAGG [Ex Theophylline B K4 28] — 2.3-fold lower, 0.0998 µM
- GCGCGUCAUGUCAGCGGUGACACUGUCGAUACCAGUGCCGAAAGGCGCCCUUGGCAGCGACGUGCUGGAGUGAUGUUCCAGCGUU [#2 Exclusion - Theophylline A Attempt #30 (HarryS)] — 1.5-fold lower, 0.154 µM
- AAUGUACAAGUGAUGUUUGUACUUUCCGAAGGAGCGUCUAAUAAGACAGGUAGGUCGCGGAUUCUCUAAAUUAUCAGGUCAUUAA [JR_ExcArginiA_Sub018] — 2.5-fold lower, 0.0918 µM
- UGUACCGAGUCAGGAUAUGGCGUCGAAAGACGAAACCAGUGAUGUUGGAAAAUCUGCGAAAGCAGUCCAGAAGGGACUUGGUACU [FmnBS 24 #SwitchBubble #StaticStem #DoubleMagnetSystem] — within 1.5-fold, 0.193 µM
- GCCUAGUGAUGUUGGGUAAUUUAAACCGGGCGAGGACCGGUACGGCCGCCACUCGGAAACACAACAAAAUUUAAUUUAAUUUAAA [Exclusion - Trytophan A] — within 1.5-fold, 0.176 µM
- UGAUACCAGACUGAUACCAGCCACAGAGUCAAAGACUCUGAAAAGGAAACCAGUGAUGUUGGCCCUUGGCAGCAGUCUGGUAUCU [TheoBX 15 #SwitchBubble #StaticStem] — within 1.5-fold, 0.191 µM
- GUAUCGCUAGGAGGAUAUUUCAAUUUGACUCUUUGAGUUAAUACGGAGUGAUGUUCCGAUUUACGGAAAGAAGGCCUAGUGAUAC [FMN B 13] — 1.9-fold lower, 0.123 µM
- UUUAGAUGAAGUGAUACCAGACUUGAAAGUGAUGUUUUCCAAUAAUUUAAAUUAUUAGCUGUCCCUUGGCAGCACAGUUUAUUUA [JR_ExcTheophyB_Sub008] — within 1.5-fold, 0.229 µM
- AGUUCUUGCCGAAGGAGCGAGGCAGAGUGAUGUUCUGCAAGAGGUCGAAAGACCUCUCUGCCUCAGGUAGGUCGCGGCAUGAACA [Omei KL Arginine B Exc A v3] — 2.2-fold higher, 0.517 µM
- AUUUUUAACUGAGGAUAUCGAAUUUAUGUAGUGAUGUUACUUUAAAUUAAAAUUUUAAUUUCUUAACGAGAAGGCAGAAUAAUUA [JR_SSFMNB_Sub025] — 2.1-fold lower, 0.111 µM
- UUUCGUCUCUGAGGAUAUCAGAGGAGAGUGAUGUUCUCCCAUAGCCCAGUGAUGUUGGAUGCUAUCUGAGAAGGCAGUGGGCGAA [Same State FMN B GF 13] — 1.6-fold lower, 0.143 µM
- AUACGUUUUUGUGAUACCAGACAUGUGAGUGAUGUUUACAUAUAUAUUUAAUAUUUAGCUGUCCCUUGGCAGCACUGUUUAUUUA [JR_ExcTheophyB_Sub004] — 1.6-fold higher, 0.362 µM
- ACAGGAUCGAAAGAUCCUGAGCAGUCAAAACGAGGACCGGUACGGCCGCCACUCGAAUAAGAGAGUGAUGUUCUCGACUGCAAAA [Omei inspired 10 - Reversed #K4Late] — 4-fold higher, 0.939 µM
- AGAACUGUCUUGGAUACCAGUGAUGUUGGUAUCGAUGUGUGAGUGCAAAGCGUCCCACAUCGCCCUUGGCAGCUAAGACAGUUCA [Omei KL Theo B Exc A v5] — within 1.5-fold, 0.331 µM
- ACGUAGUUCUAGGAUACCAGCCAAGAUGCCAGGACAAAAGUCCUGGCAGCCAGUGAUGUUGGCCCUUGGCAGCCUAGAACUACGA [Omei KL Theo B Exc B v9] — 1.6-fold lower, 0.149 µM
- AGUAUGGCAACAUUGCAAGUAGCCGUACCACGAGGACCGGUACGGCCGCCACUCGAUAACUUGCAGUGAUGUUGCAAGUAAGAAU [(T)''-(K)'-(T)'-(T1)-(T2)-(K1)-(K2)_Design4] — within 1.5-fold, 0.193 µM
- UGACGUAAAACCGUCGAAUCGCUGUGAGAAGGAGCGGUAAAAUUGCCAGGUAGGUCGCUCACAGCCUCACAGUGAUGUUGUGGGA [Sovetequ] — 2-fold higher, 0.468 µM
- ACAUGUUCCAGUGAUGUUGGCGUACGUGAUACCAGACGAAUAAAAGUCCCUUGGCAGCACAAAUAAGCCAAGAUAGGUGAAUGAU [#04 K4 Theophylline A Exclusion] — 1.7-fold higher, 0.403 µM
- AGCUCAGAGUGACUCGAUAAGAGUCACAAACGAGGACCGGUACGGCCGCCACUCGAAACAAAGAGAGUGAUGUUCUCGCUGAGCA [FiskerMod 10 - Jieux - Same State Tryptophan A] — within 1.5-fold, 0.319 µM
- CUAGGCAACACAGGAUAUGUCCGAGUGAUGUUCGAGCCUUUCCAUUGACGAAAUUAAUGGUGGGUGACAGAAGGGUGAGUGCUGA [Xezaqu] — 1.5-fold higher, 0.354 µM
- UUGCAUGCUAGGGAAACCUAGCAUGCAUGCCGAGGACCGGUACGGCCGCCACUCGAACGAGUGAUGUUCGUUGACCAAAAUAAAA — within 1.5-fold, 0.227 µM
- CGCAGUGAUGUUGCUAUUAUUCUUGAUUAACGAGGACCGGUACGGCCGCCACUCGAUUUCUAUCUAAUUUAGUGUUAUGUUGAUU [JR_ExcTryptoA_Sub007] — 1.5-fold higher, 0.351 µM
- AAGCAGUCACUCGAAACCAUCGAAGAUGGUCGAGGACCGGUACGGCCGCCACUCGGAGUGAUGUUCCGAAGACUGCAAAAUAAAA [#SwitchBubble 10] — within 1.5-fold, 0.313 µM
- UGGCGGCAAGGGUUAUUGGAAAGUAUUCGACGAGGACCGGUACGGCCGCCACUCGAACACCAGUGAUGUUGGUCUGGCUUAAGCC [Exclusion Tryptophan A GF 21] — within 1.5-fold, 0.276 µM
- UGAGUUAGACAAAAGUCUAGCUCUGGUGAAGGAGCGUCCGAAAGGACAGGUAGGUCGCACCACCUGAGUGAUGUUCAGAAUCCUU [KL-SSArg-A22] — 2.9-fold higher, 0.67 µM
- UUUGUAUCGGGAAGGAGCGUGAAUGAUAAUGAAUAUAGUGAUGUUAUAUAUAAGAACGAAUCACAGGUAGGUCGCCCGGAUGAGU [SSArgB.N] — 2.4-fold higher, 0.548 µM
- CGAGAGCUCUUGUUUGGAUGUGUUUUAUGGCGAGGACCGGUACGGCCGCCACUCGGGUGAUGUUAGUGAUGUUGAUGUAGUGAUG [qzxmullin] — 2-fold lower, 0.118 µM
- UAUCCUCGCUGAAGGAGCGAGCAUGAAGCAGUGAUGUUCCGAGCGAGUGAUGUUCGCAUAGCUCAGGUAGGUCGCAGUGGGAUUU [Same State Arginie B GF 17] — 3.4-fold higher, 0.795 µM
- GGUGACAGCCAGGAGUGAUGUAUAGAAUAGCGAGGACCGGUACGGCCGCCACUCGUGAAGAGAAGGGAGUGAUGUUCCGUAAUGG [Kazoo C] — 2.7-fold higher, 0.627 µM
- UUGGAUUGAUGAGAGUUGAUUUGGUAGGAAGGAGCGGCCGAAAGGCCAGGUAGGUCGCCUAUUGACAGUGAUGUUGUUAUAUGGU [#16] — within 1.5-fold, 0.215 µM
- UAUCUAUGCUCGGCCGCCACUAGGACCGGGAGGUAACUAGUGAUGUUAGUAUCUUCGGCCGCCACUAGGACCGGGAGUGUAGAUA [KL-SSTryp-B17 #DoubleAptamer] — 2-fold lower, 0.115 µM
- CGUGCCCGGCCGGAUACCAGUGACCCGCUGGGAACCGCGGGCCCAGAGUGAUGUUCGGGACACCCUUGGCAGCCGCCUGGGCUGC [#2 Same State - Theophylline B Attempt #14 (HarryS)] — 2.3-fold higher, 0.54 µM
- AAACAAGAUGCAGGAUAUACGGACCCAGUGAUGUUGGGUAGAAUUGUCCCGGCAAUCCUUGUGGCAGUAGAAGGGCAAUAAAAGA [Gexeraora] — within 1.5-fold, 0.271 µM
- AAACUUGCAGUGAUGUUGCAAGUAGGUGAUACCAGCAUCGAAAGAUGCCCUUGGCAGCACCAUCUUGUAACAUAGGUAUCACCAA [(H1)-(H2)-(T1)-(T2)-(H)'-(T)'_Design4] — within 1.5-fold, 0.208 µM
- AAACAUCACUGGGAGUGAUGUUCUCAGUGACGAGGACCGGUACGGCCGCCACUCGCGAGAGAACUAGUCUAGUCUUGACUGCAUU [Excl Tryptophan A V14] — within 1.5-fold, 0.277 µM
- UGUCGUUCUAGUGAUGUUAGGACAGUUAUGAAGGAUAUACACACUCGUAGAAGGUCAGCUGCGGAAUGGCGAUUACGGUGAUUCG [theeternabot_sameState_KL_FMN_A_39] — within 1.5-fold, 0.157 µM
- GUGCGGCUAGUGAUGUUGGUUGCGUGGGAAGGAGCGCAGUAAAAUGCAGGUAGGUCGCCCGCAUCUCUGAUAAAAGAUUAAUUCA [KL-SSArg-A9] — within 1.5-fold, 0.276 µM
- CACGCCUGUUGUCUGGUAGACAGAUCAGAUACCAGACAUAGUGAUGUCCCUUGGCAGCUGAACAUCCAGUGAUGUUGGAUGCGUU [Theo A SS t11] — 1.9-fold higher, 0.447 µM
- CCUAUCUCAUACGAUACCAGUCAAUAUAAACGAGUGAUGUUCGAAAUAAUAUGCCAUCACGACCCUUGGCAGCGUAUGGGAUAGG [Ex Theophylline B K4 6] — within 1.5-fold, 0.158 µM
- GGCGGCCGCGCGUAAGCGCGGCCGGCCGAUACCAGCGCGACGGCGCGCCCUUGGCAGCGGCGCCGAGUGAUGUUCGGCCUGCCGG [#2 Same State - Theophylline A Attempt #17 (HarryS)] — 1.6-fold higher, 0.376 µM
- UAUUUAAAUAAAAUAAAAUAAAUUGCUGAUACCAGAGUCAAUUGACUCCCUUGGCAGCGGAUCGAGUGAUGUUCGUAAAAUUUAU [AK2.1 SS Theophylline A] — 8.5-fold lower, 0.0274 µM

Same assay, conditions: Eterna round: R107; input ligand: arginine 13.2 mM

Point of comparison: “GCGCGUCAUGUCAGCGGUGACACUGUCGAUACCAGUGCCGAAAGGCGCCCUUGGCAGCGACGUGCUGGAGUGAUGUUCCAGCGUU [#2 Exclusion - Theophylline A Attempt #30 (HarryS)]”, “apparent KD of K4 kissing-loop reporter” value 0.135 µM. Against it:
- CCUAUCUCAUACGAUACCAGUGAUUAACCAGUGAUGUUGGAAUAACCAAGGAAUAUUUAUCACCCUUGGCAGCGUAUGGGAUAGG [Ex Theophylline B K4 28] — 2.5-fold lower, 0.0544 µM
- AAUGUACAAGUGAUGUUUGUACUUUCCGAAGGAGCGUCUAAUAAGACAGGUAGGUCGCGGAUUCUCUAAAUUAUCAGGUCAUUAA [JR_ExcArginiA_Sub018] — 1.6-fold lower, 0.0854 µM
- UGUACCGAGUCAGGAUAUGGCGUCGAAAGACGAAACCAGUGAUGUUGGAAAAUCUGCGAAAGCAGUCCAGAAGGGACUUGGUACU [FmnBS 24 #SwitchBubble #StaticStem #DoubleMagnetSystem] — 1.7-fold higher, 0.236 µM
- GCCUAGUGAUGUUGGGUAAUUUAAACCGGGCGAGGACCGGUACGGCCGCCACUCGGAAACACAACAAAAUUUAAUUUAAUUUAAA [Exclusion - Trytophan A] — within 1.5-fold, 0.138 µM
- UGAUACCAGACUGAUACCAGCCACAGAGUCAAAGACUCUGAAAAGGAAACCAGUGAUGUUGGCCCUUGGCAGCAGUCUGGUAUCU [TheoBX 15 #SwitchBubble #StaticStem] — within 1.5-fold, 0.176 µM
- GUAUCGCUAGGAGGAUAUUUCAAUUUGACUCUUUGAGUUAAUACGGAGUGAUGUUCCGAUUUACGGAAAGAAGGCCUAGUGAUAC [FMN B 13] — 1.5-fold higher, 0.203 µM
- UUUAGAUGAAGUGAUACCAGACUUGAAAGUGAUGUUUUCCAAUAAUUUAAAUUAUUAGCUGUCCCUUGGCAGCACAGUUUAUUUA [JR_ExcTheophyB_Sub008] — 2.4-fold higher, 0.326 µM
- AGUUCUUGCCGAAGGAGCGAGGCAGAGUGAUGUUCUGCAAGAGGUCGAAAGACCUCUCUGCCUCAGGUAGGUCGCGGCAUGAACA [Omei KL Arginine B Exc A v3] — 1.8-fold higher, 0.239 µM
- AUUUUUAACUGAGGAUAUCGAAUUUAUGUAGUGAUGUUACUUUAAAUUAAAAUUUUAAUUUCUUAACGAGAAGGCAGAAUAAUUA [JR_SSFMNB_Sub025] — within 1.5-fold, 0.194 µM
